# Measurements reported in US20130315910A1 (Xencor, published 2013).
# Numbering of substitutions follows the chain as printed. Names may count otherwise.
# T1: human FcγRIIa (131R), His- and GST-tagged (human, UniProt P12318 34-217)
# T1 construct: Expressed in HEK293T cells, purified by nickel chromatography; also called R131 FcγRIIa; not shown: 6xHis and GST tags of the pTT5 vector
# T1 sequence (looked up): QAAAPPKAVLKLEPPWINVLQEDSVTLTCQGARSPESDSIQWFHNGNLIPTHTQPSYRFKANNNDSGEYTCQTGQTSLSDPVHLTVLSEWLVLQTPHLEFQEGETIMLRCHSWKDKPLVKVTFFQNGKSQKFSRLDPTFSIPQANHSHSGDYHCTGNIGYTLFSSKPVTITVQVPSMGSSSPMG
# T2: human FcγRIIa (131H), His- and GST-tagged (human, UniProt P12318 34-217)
# T2 construct: also called H131 FcγRIIa; HIIa; not shown: 6xHis and GST tags of the pTT5 vector
# T2 sequence (looked up): T1 sequence (looked up) with R134H
# T3: human FcγRIIb receptor protein (R&D Systems) (human, UniProt P31994 46-217)
# T3 construct: Bought protein injected over captured antibody in Biacore; also called CD32b
# T3 sequence (looked up): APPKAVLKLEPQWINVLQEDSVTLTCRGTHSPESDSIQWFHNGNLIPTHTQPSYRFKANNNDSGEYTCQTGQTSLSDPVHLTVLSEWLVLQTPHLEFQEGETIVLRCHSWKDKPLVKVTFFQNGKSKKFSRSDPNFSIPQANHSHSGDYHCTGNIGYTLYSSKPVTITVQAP
# T4: mFcγRIV
# T4 construct: also called mouse FcγRIV; not shown: C-terminal His and GST tags (named only on our card)
# T4 chain: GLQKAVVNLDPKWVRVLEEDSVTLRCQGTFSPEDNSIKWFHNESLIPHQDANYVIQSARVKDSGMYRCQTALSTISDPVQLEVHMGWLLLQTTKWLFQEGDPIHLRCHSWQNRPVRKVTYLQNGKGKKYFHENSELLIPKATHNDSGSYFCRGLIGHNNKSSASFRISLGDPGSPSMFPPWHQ
# T5: cynoFcγRIIb (Macaca fascicularis, UniProt A0A140HDP4)
# T5 construct: extracellular region, C-terminal His- and GST-tag; also called cynomolgus monkey FcγRIIb
# T5 sequence (receptor extracellular region): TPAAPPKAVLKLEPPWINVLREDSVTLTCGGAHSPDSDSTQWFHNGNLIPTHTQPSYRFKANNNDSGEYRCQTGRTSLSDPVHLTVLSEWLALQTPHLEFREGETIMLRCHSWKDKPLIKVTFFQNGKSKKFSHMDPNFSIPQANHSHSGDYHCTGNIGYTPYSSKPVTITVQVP
# T6: mFcγRIIb (Mus musculus, UniProt P08101)
# T6 construct: extracellular region, C-terminal His- and GST-tag; also called mouse FcγRII
# T6 sequence (receptor extracellular region, looked up): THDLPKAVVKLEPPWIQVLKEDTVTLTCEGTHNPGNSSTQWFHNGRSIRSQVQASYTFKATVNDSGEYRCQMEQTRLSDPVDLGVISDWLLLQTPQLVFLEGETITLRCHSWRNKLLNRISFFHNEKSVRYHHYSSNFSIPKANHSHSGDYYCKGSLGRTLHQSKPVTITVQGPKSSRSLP
# B1: G236D (antibody, human IgG1, kappa)
# heavy: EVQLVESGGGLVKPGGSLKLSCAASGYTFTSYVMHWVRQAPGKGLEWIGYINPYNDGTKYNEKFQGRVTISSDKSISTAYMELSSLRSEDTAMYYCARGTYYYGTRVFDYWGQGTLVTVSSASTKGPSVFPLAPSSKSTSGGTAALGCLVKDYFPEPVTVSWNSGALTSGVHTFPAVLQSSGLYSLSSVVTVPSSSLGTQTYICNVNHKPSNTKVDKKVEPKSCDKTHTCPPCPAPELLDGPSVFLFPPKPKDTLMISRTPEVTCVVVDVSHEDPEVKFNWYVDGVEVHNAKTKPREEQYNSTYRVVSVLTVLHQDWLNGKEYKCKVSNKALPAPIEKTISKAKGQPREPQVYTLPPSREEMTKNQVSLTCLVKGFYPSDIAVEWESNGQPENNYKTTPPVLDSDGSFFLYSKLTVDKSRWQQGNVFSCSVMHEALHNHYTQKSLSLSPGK
# light: DIVMTQSPATLSLSPGERATLSCRSSKSLQNVNGNTYLYWFQQKPGQSPQLLIYRMSNLNSGVPDRFSGSGSGTEFTLTISSLEPEDFAVYYCMQHLEYPITFGAGTKLEIKRTVAAPSVFIFPPSDEQLKSGTASVVCLLNNFYPREAKVQWKVDNALQSGNSQESVTEQDSKDSTYSLSSTLTLSKADYEKHKVYACEVTHQGLSSPVTKSFNRGEC
# notes: HuAM4G7 anti-CD19 IgG1 (m1) with this Fc substitution, EU index; copies: 2 + 2
# B2: S239D (antibody, human IgG1, kappa)
# heavy: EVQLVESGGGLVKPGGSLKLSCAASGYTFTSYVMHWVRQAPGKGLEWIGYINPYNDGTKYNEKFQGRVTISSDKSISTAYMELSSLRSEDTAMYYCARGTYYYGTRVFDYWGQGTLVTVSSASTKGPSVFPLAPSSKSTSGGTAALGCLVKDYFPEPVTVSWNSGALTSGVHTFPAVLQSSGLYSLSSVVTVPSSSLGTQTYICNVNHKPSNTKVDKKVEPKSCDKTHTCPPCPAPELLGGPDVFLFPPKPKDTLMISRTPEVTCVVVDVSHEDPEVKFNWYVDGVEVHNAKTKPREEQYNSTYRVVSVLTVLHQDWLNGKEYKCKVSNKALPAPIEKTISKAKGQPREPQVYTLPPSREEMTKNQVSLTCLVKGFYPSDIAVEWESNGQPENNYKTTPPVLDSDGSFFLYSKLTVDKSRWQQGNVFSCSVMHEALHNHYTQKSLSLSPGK
# light: B1 light
# notes: as for B1
# B3: anti-CD19 antibody HuAM4G7 IgG1 ^236R/L328R (antibody)
# heavy: EVQLVESGGGLVKPGGSLKLSCAASGYTFTSYVMHWVRQAPGKGLEWIGYINPYNDGTKYNEKFQGRVTISSDKSISTAYMELSSLRSEDTAMYYCARGTYYYGTRVFDYWGQGTLVTVSSASTKGPSVFPLAPSSKSTSGGTAALGCLVKDYFPEPVTVSWNSGALTSGVHTFPAVLQSSGLYSLSSVVTVPSSSLGTQTYICNVNHKPSNTKVDKKVEPKSCDKTHTCPPCPAPELLGRGPSVFLFPPKPKDTLMISRTPEVTCVVVDVSHEDPEVKFNWYVDGVEVHNAKTKPREEQYNSTYRVVSVLTVLHQDWLNGKEYKCKVSNKARPAPIEKTISKAKGQPREPQVYTLPPSREEMTKNQVSLTCLVKGFYPSDIAVEWESNGQPENNYKTTPPVLDSDGSFFLYSKLTVDKSRWQQGNVFSCSVMHEALHNHYTQKSLSLSPGK
# light: B1 light
# notes: also called Fc-KO; FcγR knockout
# B4: anti-CD19 antibody HuAM4G7 IgG1 S239D/S267E (antibody)
# heavy: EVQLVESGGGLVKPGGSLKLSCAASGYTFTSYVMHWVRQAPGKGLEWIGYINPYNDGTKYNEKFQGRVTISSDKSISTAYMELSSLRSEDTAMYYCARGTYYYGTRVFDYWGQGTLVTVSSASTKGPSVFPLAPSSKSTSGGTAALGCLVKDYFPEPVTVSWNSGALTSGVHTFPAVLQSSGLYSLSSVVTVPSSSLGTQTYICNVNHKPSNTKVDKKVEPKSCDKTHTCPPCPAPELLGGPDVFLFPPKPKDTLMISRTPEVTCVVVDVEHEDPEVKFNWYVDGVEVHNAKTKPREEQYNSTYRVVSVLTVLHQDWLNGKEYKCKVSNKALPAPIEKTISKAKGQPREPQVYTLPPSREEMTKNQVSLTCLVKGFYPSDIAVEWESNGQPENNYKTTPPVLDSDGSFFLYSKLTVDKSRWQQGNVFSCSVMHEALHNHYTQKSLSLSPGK
# light: B1 light
# notes: Positions in EU numbering; copies: 2 + 2
# B5: P329E (antibody, human IgG1, kappa)
# heavy: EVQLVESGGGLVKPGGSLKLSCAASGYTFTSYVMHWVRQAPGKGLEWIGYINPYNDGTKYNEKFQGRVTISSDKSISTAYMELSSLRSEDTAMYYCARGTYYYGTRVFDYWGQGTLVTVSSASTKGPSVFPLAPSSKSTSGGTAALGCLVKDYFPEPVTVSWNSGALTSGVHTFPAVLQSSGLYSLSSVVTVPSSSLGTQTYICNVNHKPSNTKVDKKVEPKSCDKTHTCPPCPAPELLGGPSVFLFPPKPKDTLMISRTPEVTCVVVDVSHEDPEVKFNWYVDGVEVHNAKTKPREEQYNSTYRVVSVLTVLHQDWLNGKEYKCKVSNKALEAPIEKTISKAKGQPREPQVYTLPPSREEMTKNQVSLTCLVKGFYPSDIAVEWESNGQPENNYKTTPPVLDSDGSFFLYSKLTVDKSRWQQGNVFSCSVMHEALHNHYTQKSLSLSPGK
# light: B1 light
# notes: as for B1
# B6: anti-CD19 antibody HuAM4G7 IgG1 G236R/L328R (antibody)
# heavy: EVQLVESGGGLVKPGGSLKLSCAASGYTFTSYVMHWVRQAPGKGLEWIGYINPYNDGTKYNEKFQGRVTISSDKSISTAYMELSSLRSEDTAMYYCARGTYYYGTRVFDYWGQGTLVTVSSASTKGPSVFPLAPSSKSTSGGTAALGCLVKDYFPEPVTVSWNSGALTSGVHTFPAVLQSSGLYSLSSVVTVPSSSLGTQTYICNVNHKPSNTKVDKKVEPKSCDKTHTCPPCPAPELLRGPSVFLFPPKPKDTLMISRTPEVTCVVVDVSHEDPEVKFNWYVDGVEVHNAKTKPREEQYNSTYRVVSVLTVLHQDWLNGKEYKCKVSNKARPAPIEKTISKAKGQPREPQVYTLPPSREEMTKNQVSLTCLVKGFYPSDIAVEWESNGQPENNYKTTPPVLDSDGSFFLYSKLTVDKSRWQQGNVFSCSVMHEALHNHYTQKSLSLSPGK
# light: B1 light
# notes: Control knock out variant; Positions in EU numbering; also called Fc-KO; FcγR knockout
# B7: G237A (antibody, human IgG1, kappa)
# heavy: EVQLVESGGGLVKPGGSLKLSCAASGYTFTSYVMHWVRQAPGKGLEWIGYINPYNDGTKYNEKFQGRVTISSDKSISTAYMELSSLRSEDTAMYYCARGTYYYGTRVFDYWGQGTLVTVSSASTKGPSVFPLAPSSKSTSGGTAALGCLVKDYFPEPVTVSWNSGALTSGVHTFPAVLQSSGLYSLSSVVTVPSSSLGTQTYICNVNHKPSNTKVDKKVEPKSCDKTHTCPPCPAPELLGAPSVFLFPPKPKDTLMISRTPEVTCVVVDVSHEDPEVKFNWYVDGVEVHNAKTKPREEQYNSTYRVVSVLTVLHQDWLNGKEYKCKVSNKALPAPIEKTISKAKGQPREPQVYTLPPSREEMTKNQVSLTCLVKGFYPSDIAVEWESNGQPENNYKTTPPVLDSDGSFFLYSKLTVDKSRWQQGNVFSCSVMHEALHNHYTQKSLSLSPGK
# light: B1 light
# notes: as for B1
# B8: V266D (antibody, human IgG1, kappa)
# heavy: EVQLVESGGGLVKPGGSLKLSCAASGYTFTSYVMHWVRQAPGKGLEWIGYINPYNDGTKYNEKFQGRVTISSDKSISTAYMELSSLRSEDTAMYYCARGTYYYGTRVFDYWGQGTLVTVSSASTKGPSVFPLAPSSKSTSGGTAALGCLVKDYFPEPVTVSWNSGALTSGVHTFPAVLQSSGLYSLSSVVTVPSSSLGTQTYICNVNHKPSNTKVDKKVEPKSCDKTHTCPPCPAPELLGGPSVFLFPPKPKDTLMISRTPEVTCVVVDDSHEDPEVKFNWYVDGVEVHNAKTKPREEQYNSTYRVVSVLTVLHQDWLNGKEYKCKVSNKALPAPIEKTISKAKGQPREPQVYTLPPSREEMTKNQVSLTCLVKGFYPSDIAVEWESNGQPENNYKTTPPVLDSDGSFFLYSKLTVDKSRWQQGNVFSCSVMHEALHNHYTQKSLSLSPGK
# light: B1 light
# notes: as for B1
# B9: L234K (antibody, human IgG1, kappa)
# heavy: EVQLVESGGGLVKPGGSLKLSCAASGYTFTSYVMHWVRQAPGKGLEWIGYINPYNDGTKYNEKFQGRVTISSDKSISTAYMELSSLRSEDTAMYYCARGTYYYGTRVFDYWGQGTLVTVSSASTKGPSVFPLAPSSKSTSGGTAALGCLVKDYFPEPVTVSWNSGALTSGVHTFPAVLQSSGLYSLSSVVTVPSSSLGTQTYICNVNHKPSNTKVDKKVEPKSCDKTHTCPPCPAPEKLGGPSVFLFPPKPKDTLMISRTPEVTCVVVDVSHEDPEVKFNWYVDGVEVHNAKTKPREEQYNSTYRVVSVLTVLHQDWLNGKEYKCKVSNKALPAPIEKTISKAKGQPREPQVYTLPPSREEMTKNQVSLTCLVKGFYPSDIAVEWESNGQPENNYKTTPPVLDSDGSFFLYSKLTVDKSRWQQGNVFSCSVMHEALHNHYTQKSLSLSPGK
# light: B1 light
# notes: as for B1
# B10: anti-CD19 antibody HuAM4G7 IgG1 G236D/S267E (antibody)
# heavy: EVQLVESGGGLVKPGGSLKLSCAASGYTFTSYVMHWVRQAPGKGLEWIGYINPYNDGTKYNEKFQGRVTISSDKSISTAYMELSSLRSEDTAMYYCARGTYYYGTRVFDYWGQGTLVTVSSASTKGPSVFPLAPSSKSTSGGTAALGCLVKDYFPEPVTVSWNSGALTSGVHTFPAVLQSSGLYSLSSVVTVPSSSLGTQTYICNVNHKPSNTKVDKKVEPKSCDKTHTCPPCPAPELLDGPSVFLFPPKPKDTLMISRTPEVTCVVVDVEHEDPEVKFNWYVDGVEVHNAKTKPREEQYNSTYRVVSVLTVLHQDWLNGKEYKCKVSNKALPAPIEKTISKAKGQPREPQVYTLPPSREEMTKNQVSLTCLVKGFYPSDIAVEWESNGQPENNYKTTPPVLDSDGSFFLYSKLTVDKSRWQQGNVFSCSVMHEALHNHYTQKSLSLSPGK
# light: B1 light
# notes: as for B4
# Target: T1, human FcγRIIa (131R), His- and …
# Test: SPR
# 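Wherever Fold vs WT IgG1 (off-rate) is given: fold improvement over WT IgG1 so higher means slower dissociation than WT.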
Fold vs WT IgG1 [fold],Kd [nM],binding result,Binder
0.758,1130,–,B1
3.73,230,–,B2
–,–,no binding,B3
120,7.16,–,B4
0.0859,10000,–,B5
–,–,no binding,B6
0.704,1220,–,B7
0.704,1220,–,B8
0.00859,100000,–,B9

# Target: T7, human FcγRI receptor protein (R&D Systems) (human, UniProt P12314 16-288)
# T7 construct: also called soluble FcγRI; solFcγRI
# T7 sequence (P12314 16-288 limits assumed): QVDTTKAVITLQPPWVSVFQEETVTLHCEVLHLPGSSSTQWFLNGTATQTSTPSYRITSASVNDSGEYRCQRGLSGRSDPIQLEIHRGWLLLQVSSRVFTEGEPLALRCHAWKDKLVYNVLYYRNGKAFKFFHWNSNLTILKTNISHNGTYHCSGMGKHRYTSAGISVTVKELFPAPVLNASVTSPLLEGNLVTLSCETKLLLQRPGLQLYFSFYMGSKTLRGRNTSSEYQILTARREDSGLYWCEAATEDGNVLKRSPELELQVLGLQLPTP
# Test: SPR
Fold vs WT IgG1 [fold],Kd [nM],binding result,Binder
0.0211,15.6,–,B1
3.53,0.0934,–,B2
–,–,no binding,B3
23.2,0.0142,–,B4
–,–,no binding,B6
0.0108,30.5,–,B7
–,3.71,–,B10

# Target: T2, human FcγRIIa (131H), His- and …
# Test: SPR
Fold vs WT IgG1 [fold],Kd [nM],binding result,Binder
0.167,3870,–,B1
1.1,590,–,B2
–,–,no binding,B3
1.27,510,–,B4
–,–,no binding,B6
–,–,no binding,B7
–,2730,–,B10

# Target: T3, human FcγRIIb receptor protein (R&D …)
# Test: SPR
Fold vs WT IgG1 [fold],Kd [nM],binding result,Binder
1.54,953,–,B1
3.6,408,–,B2
–,–,no binding,B3
111,13.3,–,B4
0.147,10000,–,B5
–,–,no binding,B6
0.191,7680,–,B7
0.147,10000,–,B8
0.0147,100000,–,B9
–,26.6,–,B10

# Target: T8, human FcγRIIIa (158F), His- and GST-tagged (human, UniProt P08637 17-208)
# T8 construct: also called F158 FcγRIIIa; not shown: 6xHis and GST tags of the pTT5 vector
# T8 sequence (P08637 17-208): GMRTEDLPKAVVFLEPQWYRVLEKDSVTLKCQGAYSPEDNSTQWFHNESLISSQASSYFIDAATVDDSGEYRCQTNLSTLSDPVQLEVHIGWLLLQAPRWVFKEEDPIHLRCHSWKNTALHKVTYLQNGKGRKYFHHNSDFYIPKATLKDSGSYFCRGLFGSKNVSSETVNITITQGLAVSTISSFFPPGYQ
# Test: SPR
binding result,Fold vs WT IgG1 [fold],Kd [nM],Binder
no binding,–,–,B1
–,6.32,214,B2
no binding,–,–,B3
–,–,516,B4
no binding,–,–,B6

# Target: T9, human FcγRIIIa (158V), His- and GST-tagged (human, UniProt P08637 17-208)
# T9 construct: also called V158 FcγRIIIa; VIIIa; not shown: 6xHis and GST tags of the pTT5 vector
# T9 sequence (P08637 17-208 F176V): as the sequence (P08637 17-208) above, with F160V counted along it
# Test: SPR
binding result,Fold vs WT IgG1 [fold],Kd [nM],Binder
no binding,–,–,B1
–,8.14,23.5,B2
no binding,–,–,B3
–,3.74,51.2,B4
no binding,–,–,B6
no binding,–,–,B7
–,–,579,B10

# Target: T4, mFcγRIV
# Test: SPR
Fold vs WT IgG1 (Kd) [fold],Fold vs WT IgG1 (off-rate) [fold],Binder
2.52,1.91,B2
0.726,1.54,B4

# Target: T10, cynoFcγRIIIa (Macaca fascicularis, UniProt Q8SPW2)
# T10 construct: extracellular region, C-terminal His- and GST-tag; also called cynomolgus monkey FcγRIIIa
# T10 sequence (Q8SPW2 17-208): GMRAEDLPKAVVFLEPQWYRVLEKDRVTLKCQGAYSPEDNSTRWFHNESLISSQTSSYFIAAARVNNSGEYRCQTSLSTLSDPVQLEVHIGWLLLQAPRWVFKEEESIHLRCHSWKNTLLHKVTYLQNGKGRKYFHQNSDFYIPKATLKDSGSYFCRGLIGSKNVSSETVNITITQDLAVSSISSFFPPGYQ
# Test: SPR
Fold vs WT IgG1 (Kd) [fold],Fold vs WT IgG1 (off-rate) [fold],Binder
7.58,2.33,B2
3.88,1.68,B4

# Target: T5, cynoFcγRIIb
# Test: SPR
Fold vs WT IgG1 (Kd) [fold],Fold vs WT IgG1 (off-rate) [fold],Binder
1.64,1.99,B2
1.59,2.53,B4

# Target: T6, mFcγRIIb
# Test: SPR
Fold vs WT IgG1 (Kd) [fold],Fold vs WT IgG1 (off-rate) [fold],Binder
2.01,2.91,B2
1.75,7.87,B4

# Target: T4, mFcγRIV
# Test: SPR, off-rate
row,binding result,Binder
1,no binding,B1
2,no binding,B5
3,no binding,B7
4,no binding,B8
5,no binding,B9
6,no binding,B10

# Target: T10, cynoFcγRIIIa
# Test: SPR, off-rate
row,binding result,Binder
1,no binding,B1
2,no binding,B5
3,no binding,B7
4,no binding,B8
5,no binding,B9
6,no binding,B10

# Target: T5, cynoFcγRIIb
# Test: SPR, off-rate
row,binding result,Binder
1,no binding,B1
2,no binding,B5
3,no binding,B7
4,no binding,B8
5,no binding,B9
6,no binding,B10

# Target: T6, mFcγRIIb
# Test: SPR, off-rate
row,binding result,Binder
1,no binding,B1
2,no binding,B5
3,no binding,B7
4,no binding,B8
5,no binding,B9
6,no binding,B10
